Data published in publication PMC6412629, “β-Galactosidase from Lactobacillus helveticus DSM 20075: Biochemical Characterization and Recombinant Expression for Applications in Dairy Industry” (International Journal of Molecular Sciences, 2019).

Substrate: O=[N+]([O-])c1ccccc1O[C@@H]1O[C@H](CO)[C@H](O)[C@H](O)[C@H]1O
Experiment: purified protein
Format: biochemical, Lactobacillus helveticus
Details: 50 mM sodium phosphate pH 6.5, 30 °C, oNPG 0.5-22 mM, substrate inhibition seen

B1: recombinant β-galactosidase from L. helveticus (EcoliBL21Lhβ-gal), LacLM (Lactobacillus helveticus; Q7WTB4:Q2E) (protein)
chain 1: MEANINWLDNPEVFRVNQLPAHSDHPFFRDYREWQKQHSSYQQSLNGKWKFHFSANPMDRPQDFYQRDFDSSNFDSIPVPSEIELSNYTQNQYINVLFPWEGKIFRRPAYALDPNDHEEGSFSKGADNTVGSYLKRFDLSSALIGKDVHIKFEGVEQAMYVWLNGHFVGYAEDSFTPSEFDLTPYIQDKDNLLAVEVFKHSTASWLEDQDMFRFSGIFRSVELLGIPATHLMDMDLKPRVADNYQDGIFNLKLHFIGKKAGSFHLLVKDIKGHTLLEKNEDIKENVQINNEKFENVHLWNNHDPYLYQLLIEVYDEQQNLLELIPFQFGFRRIEISPEKVVLLNGKRLIINGVNRHEWDAKRGRSITMSDMTTDINTFKENNINAVRTCHYPNQIPWYYLCDQNGIYVMAENNLESHGTWQKMGEIEPSDNVPGSIPQWKEAVIDRARINYETFKNHTSILFWSLGNESYAGDNIIAMNEFYKSHDDTRLVHYEGVVHRPELKDKISDVESCMYLPPKKVEEYLQNDPPKPFMECEYMHDMGNSDGGMGSYIKLLDKYPQYFGGFIWDFIDQALLVHDEISGHDVLRYGGDFDDRHSDYEFSGDGLMFADRTPKPAMQEVRYYYGLHK
chain 2: MDYTNNQLHIIYGDATLGVNGKDFQYIFSYERGGLESLKVHGKEWLYRVPTPTFWRATTDNDRGSGFNLKAAQWLGADMFTKCTDIHLKVDRHDFAELPIAPFNNKFSNHEYAKSAEISFTYQTLTTPATNAKIIYNIDDVGHIKVTMRYYGKKGLPPLPVIGIRLIMPTAATGFDYEGLSGETYPDRMAGAKEGKFHIDGLPVTEYLVPQENGMHMQTKKLTINRETTQNNVDRTNEKFSLSIQQAEKPFNFSCLPYTAEELENATHIEELPLVRRTVLVIAGAVRGVGGIDSWGTDVESAYHINPELDHEFSFILN
notes: overlapping lacLM genes in pET-21d(+) (NcoI/XhoI); C-terminal His-tag (vector), follows lacM end; E. coli BL21 Star (DE3), HisTrap purified; heterodimer ~109 kDa
Km: 1400 ± 300 µM
Vmax: 476 µmol/min/mg
kcat: 865 ± 120 s⁻¹
kcat/Km: 618000 M⁻¹ s⁻¹
